The record followed here is PMC12311180, “Structure and mechanism of the RalGAP tumor suppressor complex” (Nature Communications, 2025).

Data set [1] deals with the molecule itself. Description: cryo-EM structure; RGα2/RGβ/κB-Ras2 complex from Expi293F, FLAG affinity and Superose 6 in 20 mM HEPES pH 7.5, 150 mM NaCl, 2 mM MgCl2, 1 mM TCEP; single particle analysis of the half-particle, 3.8 Å overall.
The target in data set [2] is T1, RalGAPα2 (RGα2), full length, co-expressed in Expi293F and purified by FLAG affinity (UniProt Q2PPJ7 1-1873).
T1 construct: RalGAPα2, catalytic α-subunit of the RalGAP2 complex; catalytic asparagine N1742; residues 1-73 not resolved in the map; residue numbers (N1742, R1738, N943) are used together with human patient variants; also called RGα2^fl; source: Expi293F cells, transfected, purified (M2 anti-FLAG beads, 3xFLAG peptide elution; Superose 6 for cryo-EM)
Described as above. To be noted: both partners purified.

T1 sequence (Q2PPJ7 whole entry, the tested form may be a part): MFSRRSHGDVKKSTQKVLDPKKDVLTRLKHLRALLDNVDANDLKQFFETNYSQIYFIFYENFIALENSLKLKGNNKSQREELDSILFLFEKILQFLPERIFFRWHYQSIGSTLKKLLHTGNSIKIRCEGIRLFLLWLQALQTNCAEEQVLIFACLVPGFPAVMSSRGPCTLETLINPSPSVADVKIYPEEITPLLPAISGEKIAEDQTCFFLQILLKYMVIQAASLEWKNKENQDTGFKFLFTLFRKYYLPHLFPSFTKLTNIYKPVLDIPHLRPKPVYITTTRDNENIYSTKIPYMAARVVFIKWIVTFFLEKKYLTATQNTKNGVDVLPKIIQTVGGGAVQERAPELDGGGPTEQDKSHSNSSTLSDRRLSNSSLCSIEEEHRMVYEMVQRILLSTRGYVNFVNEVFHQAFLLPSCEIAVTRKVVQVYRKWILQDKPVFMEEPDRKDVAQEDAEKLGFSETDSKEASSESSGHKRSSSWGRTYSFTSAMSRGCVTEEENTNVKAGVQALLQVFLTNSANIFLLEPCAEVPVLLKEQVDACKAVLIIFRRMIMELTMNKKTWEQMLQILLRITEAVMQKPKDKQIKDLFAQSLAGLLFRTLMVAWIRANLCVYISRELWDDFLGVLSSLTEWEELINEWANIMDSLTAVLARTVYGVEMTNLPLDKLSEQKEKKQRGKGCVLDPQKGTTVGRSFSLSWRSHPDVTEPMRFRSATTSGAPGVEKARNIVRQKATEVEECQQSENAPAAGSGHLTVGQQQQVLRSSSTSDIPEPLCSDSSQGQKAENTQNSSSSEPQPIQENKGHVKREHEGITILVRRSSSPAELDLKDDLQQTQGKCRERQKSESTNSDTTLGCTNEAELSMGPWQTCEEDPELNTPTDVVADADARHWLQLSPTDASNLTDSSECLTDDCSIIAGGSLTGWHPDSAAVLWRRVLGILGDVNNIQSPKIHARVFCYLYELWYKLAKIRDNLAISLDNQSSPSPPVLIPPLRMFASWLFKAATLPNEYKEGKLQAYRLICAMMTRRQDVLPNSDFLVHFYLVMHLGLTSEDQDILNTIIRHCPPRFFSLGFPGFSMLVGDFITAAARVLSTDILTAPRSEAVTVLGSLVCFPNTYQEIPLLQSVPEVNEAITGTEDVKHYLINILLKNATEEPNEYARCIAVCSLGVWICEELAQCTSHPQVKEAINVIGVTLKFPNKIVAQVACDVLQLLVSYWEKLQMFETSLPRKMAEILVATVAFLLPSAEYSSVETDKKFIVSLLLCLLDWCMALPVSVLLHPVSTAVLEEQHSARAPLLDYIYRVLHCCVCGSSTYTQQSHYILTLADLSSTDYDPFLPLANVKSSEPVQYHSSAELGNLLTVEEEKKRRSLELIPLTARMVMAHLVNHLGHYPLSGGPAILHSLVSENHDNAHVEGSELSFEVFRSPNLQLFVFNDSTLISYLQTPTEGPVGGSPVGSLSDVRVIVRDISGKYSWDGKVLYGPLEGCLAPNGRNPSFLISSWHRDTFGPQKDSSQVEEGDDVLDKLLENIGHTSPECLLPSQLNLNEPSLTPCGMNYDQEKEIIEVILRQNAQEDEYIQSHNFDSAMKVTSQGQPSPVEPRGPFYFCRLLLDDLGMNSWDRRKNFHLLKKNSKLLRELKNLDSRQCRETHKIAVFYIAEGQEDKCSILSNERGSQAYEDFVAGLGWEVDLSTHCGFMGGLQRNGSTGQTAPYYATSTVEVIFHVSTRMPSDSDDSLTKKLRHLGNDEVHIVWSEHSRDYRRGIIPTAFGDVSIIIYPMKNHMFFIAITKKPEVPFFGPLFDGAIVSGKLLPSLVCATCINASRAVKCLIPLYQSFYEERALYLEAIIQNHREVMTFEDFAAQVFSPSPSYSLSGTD

B1: RalGAPβ (RGβ), full length, co-expressed in Expi293F and co-purified with FLAG-RGα2 (natural protein, UniProt Q86X10 1-1494, looked up)
chain: MYSEWRSLHLVIQNDQGHTSVLHSYPESVGREVANAVVRPLGQVLGTPSVAGSENLLKTDKEVKWTMEVICYGLTLPLDGETVKYCVDVYTDWIMALVLPKDSIPLPVIKEPNQYVQTILKHLQNLFVPRQEQGSSQIRLCLQVLRAIQKLARESSLMARETWEVLLLFLLQINDILLAPPTVQGGIAENLAEKLIGVLFEVWLLACTRCFPTPPYWKTAKEMVANWRHHPAVVEQWSKVICALTSRLLRFTYGPSFPAFKVPDEDASLIPPEMDNECVAQTWFRFLHMLSNPVDLSNPAIISSTPKFQEQFLNVSGMPQELNQYPCLKHLPQIFFRAMRGISCLVDAFLGISRPRSDSAPPTPVNRLSMPQSAAVSTTPPHNRRHRAVTVNKATMKTSTVSTAHASKVQHQTSSTSPLSSPNQTSSEPRPLPAPRRPKVNSILNLFGSWLFDAAFVHCKLHNGINRDSSMTAITTQASMEFRRKGSQMSTDTMVSNPMFDASEFPDNYEAGRAEACGTLCRIFCSKKTGEEILPAYLSRFYMLLIQGLQINDYVCHPVLASVILNSPPLFCCDLKGIDVVVPYFISALETILPDRELSKFKSYVNPTELRRSSINILLSLLPLPHHFGTVKSEVVLEGKFSNDDSSSYDKPITFLSLKLRLVNILIGALQTETDPNNTQMILGAMLNIVQDSALLEAIGCQMEMGGGENNLKSHSRTNSGISSASGGSTEPTTPDSERPAQALLRDYALNTDSAAGLLIRSIHLVTQRLNSQWRQDMSISLAALELLSGLAKVKVMVDSGDRKRAISSVCTYIVYQCSRPAPLHSRDLHSMIVAAFQCLCVWLTEHPDMLDEKDCLKEVLEIVELGISGSKSKNNEQEVKYKGDKEPNPASMRVKDAAEATLTCIMQLLGAFPSPSGPASPCSLVNETTLIKYSRLPTINKHSFRYFVLDNSVILAMLEQPLGNEQNDFFPSVTVLVRGMSGRLAWAQQLCLLPRGAKANQKLFVPEPRPVPKNDVGFKYSVKHRPFPEEVDKIPFVKADLSIPDLHEIVTEELEERHEKLRSGMAQQIAYEIHLEQQSEEELQKRSFPDPVTDCKPPPPAQEFQTARLFLSHFGFLSLEALKEPANSRLPPHLIALDSTIPGFFDDIGYLDLLPCRPFDTVFIFYMKPGQKTNQEILKNVESSRTVQPHFLEFLLSLGWSVDVGRHPGWTGHVSTSWSINCCDDGEGSQQEVISSEDIGASIFNGQKKVLYYADALTEIAFVVPSPVESLTDSLESNISDQDSDSNMDLMPGILKQPSLTLELFPNHTDNLNSSQRLSPSSRMRKLPQGRPVPPLGPETRVSVVWVERYDDIENFPLSELMTEISTGVETTANSSTSLRSTTLEKEVPVIFIHPLNTGLFRIKIQGATGKFNMVIPLVDGMIVSRRALGFLVRQTVINICRRKRLESDSYSPPHVRRKQKITDIVNKYRNKQLEPEFYTSLFQEVGLKNCSS
notes: RalGAPβ, common regulatory β-subunit of the RalGAP complexes; In the RalGAP tetramer two RGα2/RGβ heterodimers are joined by two RGβ; also called RGβ^fl; RGβ^WT; source: Expi293F cells, transfected, co-purified with RGα2 (M2 anti-FLAG beads; Superose 6 for cryo-EM)
As to B1, the binding result in data set [1] and in data set [2] was “binds” in each case.
